Experimental data reported in the supplement of paper PMC10724198.
± gives the standard deviation of the averaged measurements.

Key:
Saccharomyces cerevisiae [1] = assay: protein stability index of tFT-peptide fusion (C-terminal peptide) (PSI (0-1 scale)); higher = more stable (slower turnover); details: genetic background: wild type; temperature: 30 C
Saccharomyces cerevisiae [2] = assay: as above
Method: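 MPS profiling in S. cerevisiae of the tFT-X12 degron library: putative degron peptides plus stable controls, 12 aa, fused to the C-terminus of a sfGFP-mCherry timer. Cells are FACS-sorted into 8 mCherry/sfGFP bins and deep-sequenced. PSI runs from 0 (unstable) to 1 (stable). Backgrounds are wild type, das1Δ and doa10Δ at 30 °C, and wild type, das1Δ, cdc34-1 and cdc53-1 at 37 °C; 2-3 technical replicates each.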

[3] = genetic background: cdc34-1, temperature: 37 C
[4] = genetic background: cdc53-1, temperature: 37 C
[5] = genetic background: das1 deletion, temperature: 30 C
[6] = genetic background: das1 deletion, temperature: 37 C
[7] = genetic background: doa10 deletion, temperature: 30 C
[8] = genetic background: wild type, temperature: 30 C
[9] = genetic background: wild type, temperature: 37 C
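Note: PSI is a weighted mean of sequencing reads over stability bins, variants kept only with over 10 reads, mCherry proximal and sfGFP distal, peptide attached via GGGS linker.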

| Sequence | protein stability index (Saccharomyces cerevisiae [1]) | protein stability index (Saccharomyces cerevisiae [2]; [3]) | protein stability index (Saccharomyces cerevisiae [2]; [4]) | protein stability index (Saccharomyces cerevisiae [2]; [5]) | protein stability index (Saccharomyces cerevisiae [2]; [6]) | protein stability index (Saccharomyces cerevisiae [2]; [7]) | protein stability index (Saccharomyces cerevisiae [2]; [8]) | protein stability index (Saccharomyces cerevisiae [2]; [9]) |
| --- | --- | --- | --- | --- | --- | --- | --- | --- |
| SPSRAGQHLYYP | 0.718 ± 0.034 | 0.684 ± 0.028 | 0.7347 ± 0.0032 | 0.64 ± 0.016 | 0.7334 ± 0.0037 | 0.636 ± 0.0095 | 0.662 ± 0.011 | 0.6953 ± 0.0059 |
| CYCSIGCLIIFS | 0.378 ± 0.074 | 0.2261 ± 0.0021 | 0.374 ± 0.023 | 0.238 ± 0.033 | 0.446 ± 0.0093 | 0.206 ± 0.0053 | 0.22 ± 0.023 | 0.4089 ± 0.003 |
| YDLRRIGRIGVG | 0.363 ± 0.016 | 0.316 ± 0.02 | 0.404 ± 0.012 | 0.348 ± 0.019 | 0.402 ± 0.016 | 0.3542 ± 0.003 | 0.338 ± 0.0099 | 0.381 ± 0.026 |
| LSFFFWFIFSLC | 0.376 ± 0.019 | 0.475 ± 0.013 | 0.492 ± 0.053 | 0.429 ± 0.028 | 0.5328 ± 0.0043 | 0.344 ± 0.035 | 0.325 ± 0.0039 | 0.443 ± 0.027 |
| CCGWSGCVSGVL | 0.717 ± 0.018 | 0.698 ± 0.029 | 0.7602 ± 0.0038 | 0.638 ± 0.014 | 0.7418 ± 0.0014 | 0.651 ± 0.012 | 0.657 ± 0.02 | 0.74 ± 0.024 |
| KRKKHKRKLVIC | 0.265 ± 0.043 | 0.611 ± 0.03 | 0.674 ± 0.025 | 0.612 ± 0.012 | 0.732 ± 0.012 | 0.14 ± 0.027 | 0.154 ± 0.045 | 0.148 ± 0.05 |
| RYVFAFRRNYFC | 0.223 ± 0.015 | 0.448 ± 0.089 | 0.682 ± 0.0095 | 0.636 ± 0.018 | 0.744 ± 0.0096 | 0.171 ± 0.014 | 0.174 ± 0.026 | 0.299 ± 0.038 |
| SVGWGFWARFIG | 0.379 ± 0.069 | 0.686 ± 0.057 | 0.756 ± 0.013 | 0.665 ± 0.014 | 0.772 ± 0.0086 | 0.215 ± 0.016 | 0.253 ± 0.017 | 0.434 ± 0.018 |
| FRFFYLPVSVVA | 0.223 ± 0.027 | 0.0275 ± 0.013 | 0.0356 ± 0.0058 | 0.146 ± 0.036 | 0.1275 ± 0.00029 | 0.105 ± 0.02 | 0.142 ± 0.021 | 0.0865 ± 0.013 |
| TVCSWSALSRFM | 0.587 ± 0.15 | 0.691 ± 0.042 | 0.7558 ± 0.0062 | 0.6449 ± 0.0016 | 0.76419 ± 0.00033 | 0.631 ± 0.032 | 0.627 ± 0.015 | 0.705 ± 0.0097 |
| CGCLPYIGTKLC | 0.165 ± 0.0027 | 0.463 ± 0.076 | 0.711 ± 0.026 | 0.647 ± 0.028 | 0.766 ± 0.013 | 0.087 ± 0.036 | 0.117 ± 0.018 | 0.106 ± 0.012 |
| TCRLIQLTVTLH | 0.386 ± 0.053 | 0.3115 ± 0.0026 | 0.3774 ± 0.001 | 0.257 ± 0.038 | 0.458 ± 0.0051 | 0.232 ± 0.0034 | 0.253 ± 0.018 | 0.4071 ± 0.0036 |
| VFFLSFIFRFFL | 0.532 ± 0.048 | 0.594 ± 0.022 | 0.558 ± 0.02 | 0.508 ± 0.035 | 0.547 ± 0.013 | 0.482 ± 0.021 | 0.454 ± 0.0048 | 0.55 ± 0.087 |
| GGFRVLLWCVVW | 0.28 ± 0.016 | 0.19 ± 0.046 | 0.3237 ± 0.0018 | 0.214 ± 0.041 | 0.399 ± 0.0044 | 0.184 ± 0.0074 | 0.208 ± 0.03 | 0.35 ± 0.028 |
| VVNFLVFRFFCI | 0.285 ± 0.06 | 0.53 ± 0.046 | 0.531 ± 0.015 | 0.481 ± 0.029 | 0.649 ± 0.026 | 0.216 ± 0.016 | 0.217 ± 0.037 | 0.39 ± 0.018 |
| LERLHSVLLLTS | 0.284 ± 0.021 | 0.246 ± 0.0054 | 0.254 ± 0.0079 | 0.223 ± 0.036 | 0.379 ± 0.0057 | 0.165 ± 0.019 | 0.217 ± 0.027 | 0.324 ± 0.011 |
| NMRYRATIEACA | 0.356 ± 0.0097 | 0.258 ± 0.043 | 0.319 ± 0.0071 | 0.222 ± 0.029 | 0.397 ± 0.005 | 0.174 ± 0.021 | 0.226 ± 0.029 | 0.38 ± 0.023 |
| VWSVSVTIVGRR | 0.458 ± 0.011 | 0.5289 ± 0.0013 | 0.573 ± 0.035 | 0.423 ± 0.037 | 0.528 ± 0.017 | 0.439 ± 0.032 | 0.455 ± 0.0093 | 0.507 ± 0.0052 |
| VCRCFPVCLFSF | 0.413 ± 0.031 | 0.6178 ± 0.0049 | 0.692 ± 0.014 | 0.523 ± 0.023 | 0.706 ± 0.027 | 0.294 ± 0.0057 | 0.341 ± 0.029 | 0.519 ± 0.02 |
| IIAVFRCCLRVY | 0.168 ± 0.076 | 0.052 ± 0.0087 | 0.12 ± 0.022 | 0.131 ± 0.034 | 0.216 ± 0.003 | 0.061 ± 0.02 | 0.0911 ± 0.025 | 0.152 ± 0.012 |

| Sequence | protein stability index (Saccharomyces cerevisiae [1]) | protein stability index (Saccharomyces cerevisiae [2]; [3]) | protein stability index (Saccharomyces cerevisiae [2]; [4]) | protein stability index (Saccharomyces cerevisiae [2]; [5]) | protein stability index (Saccharomyces cerevisiae [2]; [6]) | protein stability index (Saccharomyces cerevisiae [2]; [7]) | protein stability index (Saccharomyces cerevisiae [2]; [8]) | protein stability index (Saccharomyces cerevisiae [2]; [9]) |
| --- | --- | --- | --- | --- | --- | --- | --- | --- |
| FPLGAQTWLCLS | 0.318 ± 0.0065 | 0.645 ± 0.084 | 0.714 ± 0.012 | 0.609 ± 0.018 | 0.729 ± 0.022 | 0.199 ± 0.0021 | 0.24 ± 0.032 | 0.466 ± 0.036 |
| FVVFLLFFMLYH | 0.379 ± 0.043 | 0.312 ± 0.052 | 0.428 ± 0.019 | 0.317 ± 0.048 | 0.4366 ± 0.0024 | 0.311 ± 0.004 | 0.305 ± 0.025 | 0.411 ± 0.0096 |
| GRFGVGVVFRLA | 0.456 ± 0.043 | 0.669 ± 0.038 | 0.72 ± 0.016 | 0.637 ± 0.028 | 0.719 ± 0.01 | 0.347 ± 0.032 | 0.393 ± 0.027 | 0.6096 ± 0.0043 |
| LPAICFWCVLVG | 0.201 ± 0.0059 | 0.0778 ± 0.014 | 0.136 ± 0.00061 | 0.164 ± 0.025 | 0.273 ± 0.035 | 0.133 ± 0.024 | 0.162 ± 0.04 | 0.21 ± 0.013 |
| VCIPLLVIRFLV | 0.109 ± 0.0095 | 0.098 ± 0.013 | 0.182 ± 0.014 | 0.234 ± 0.022 | 0.386 ± 0.029 | 0.0616 ± 0.019 | 0.0599 ± 0.014 | 0.0485 ± 0.00051 |
| WHFPCPPLPCPV | 0.4846 ± 0.0013 | 0.4132 ± 0.0036 | 0.42896 ± 0.0003 | 0.325 ± 0.031 | 0.484 ± 0.0032 | 0.298 ± 0.0082 | 0.347 ± 0.035 | 0.4714 ± 0.0025 |
| SPTRTCTAIRTP | 0.712 ± 0.034 | 0.689 ± 0.068 | 0.7392 ± 0.0058 | 0.666 ± 0.022 | 0.708 ± 0.0022 | 0.683 ± 0.057 | 0.676 ± 0.027 | 0.671 ± 0.0068 |
| VLFSVWFFLVLV | 0.117 ± 0.017 | 0.0557 ± 0.017 | 0.0354 ± 0.0069 | 0.122 ± 0.032 | 0.134 ± 0.0075 | 0.241 ± 0.015 | 0.103 ± 0.035 | 0.127 ± 0.04 |
| VQLLTRLKTPHP | 0.733 ± 0.026 | 0.6608 ± 0.0013 | 0.7443 ± 0.0035 | 0.656 ± 0.016 | 0.719 ± 0.015 | 0.636 ± 0.021 | 0.65 ± 0.024 | 0.716 ± 0.021 |
| TLVFPRFLFLVV | 0.452 ± 0.066 | 0.348 ± 0.02 | 0.365 ± 0.019 | 0.393 ± 0.031 | 0.493 ± 0.023 | 0.518 ± 0.011 | 0.363 ± 0.028 | 0.432 ± 0.0083 |
| VYLVVLYLRYFA | 0.227 ± 0.037 | 0.205 ± 0.031 | 0.22 ± 0.011 | 0.192 ± 0.038 | 0.359 ± 0.023 | 0.173 ± 0.0089 | 0.174 ± 0.016 | 0.306 ± 0.023 |
| GIGVVWLDVFKT | 0.426 ± 0.017 | 0.4 ± 0.0057 | 0.499 ± 0.024 | 0.321 ± 0.035 | 0.537 ± 0.011 | 0.301 ± 0.024 | 0.304 ± 0.017 | 0.504 ± 0.035 |
| RVITRMLLMVIR | 0.43 ± 0.036 | 0.318 ± 0.056 | 0.365 ± 0.031 | 0.353 ± 0.029 | 0.512 ± 0.019 | 0.493 ± 0.0081 | 0.359 ± 0.011 | 0.47449 ± 0.00047 |
| PSRRLRHFATSP | 0.741 ± 0.023 | 0.623 ± 0.058 | 0.68 ± 0.021 | 0.736 ± 0.037 | 0.6646 ± 0.0047 | 0.747 ± 0.038 | 0.703 ± 0.0095 | 0.6412 ± 0.00013 |
| RGGWVVVLGCVG | 0.501 ± 0.016 | 0.634 ± 0.034 | 0.6292 ± 0.0044 | 0.482 ± 0.029 | 0.6417 ± 0.0043 | 0.468 ± 0.021 | 0.486 ± 0.018 | 0.635 ± 0.036 |
| RGWWWFVVVLCR | 0.329 ± 0.028 | 0.165 ± 0.0082 | 0.139 ± 0.0061 | 0.216 ± 0.033 | 0.316 ± 0.0084 | 0.2215 ± 0.00025 | 0.197 ± 0.012 | 0.2951 ± 0.0014 |
| SVQICGFWLILG | 0.386 ± 0.06 | 0.512 ± 0.031 | 0.604 ± 0.046 | 0.416 ± 0.026 | 0.5955 ± 0.0046 | 0.317 ± 0.0037 | 0.333 ± 0.011 | 0.53992 ± 0.00031 |
| RVYLLGLFVRSG | 0.491 ± 0.0076 | 0.552 ± 0.035 | 0.61 ± 0.014 | 0.409 ± 0.04 | 0.632 ± 0.021 | 0.325 ± 0.017 | 0.371 ± 0.031 | 0.574 ± 0.033 |
| GFFFLFFVSAFI | 0.407 ± 0.026 | 0.368 ± 0.021 | 0.4553 ± 0.0027 | 0.327 ± 0.034 | 0.485 ± 0.011 | 0.2992 ± 0.0012 | 0.311 ± 0.064 | 0.445 ± 0.0067 |
